Laboratory results from publication PMC9166294, “Patched 1 regulates Smoothened by controlling sterol binding to its extracellular cysteine-rich domain” (Science Advances, 2022).

T1: PTCH1 (Patched 1) (Mus musculus, UniProt Q61115)
T1 construct: full-length PTCH1-WT with C-terminal 1D4 tag
T1 sequence (Q61115 1-1434): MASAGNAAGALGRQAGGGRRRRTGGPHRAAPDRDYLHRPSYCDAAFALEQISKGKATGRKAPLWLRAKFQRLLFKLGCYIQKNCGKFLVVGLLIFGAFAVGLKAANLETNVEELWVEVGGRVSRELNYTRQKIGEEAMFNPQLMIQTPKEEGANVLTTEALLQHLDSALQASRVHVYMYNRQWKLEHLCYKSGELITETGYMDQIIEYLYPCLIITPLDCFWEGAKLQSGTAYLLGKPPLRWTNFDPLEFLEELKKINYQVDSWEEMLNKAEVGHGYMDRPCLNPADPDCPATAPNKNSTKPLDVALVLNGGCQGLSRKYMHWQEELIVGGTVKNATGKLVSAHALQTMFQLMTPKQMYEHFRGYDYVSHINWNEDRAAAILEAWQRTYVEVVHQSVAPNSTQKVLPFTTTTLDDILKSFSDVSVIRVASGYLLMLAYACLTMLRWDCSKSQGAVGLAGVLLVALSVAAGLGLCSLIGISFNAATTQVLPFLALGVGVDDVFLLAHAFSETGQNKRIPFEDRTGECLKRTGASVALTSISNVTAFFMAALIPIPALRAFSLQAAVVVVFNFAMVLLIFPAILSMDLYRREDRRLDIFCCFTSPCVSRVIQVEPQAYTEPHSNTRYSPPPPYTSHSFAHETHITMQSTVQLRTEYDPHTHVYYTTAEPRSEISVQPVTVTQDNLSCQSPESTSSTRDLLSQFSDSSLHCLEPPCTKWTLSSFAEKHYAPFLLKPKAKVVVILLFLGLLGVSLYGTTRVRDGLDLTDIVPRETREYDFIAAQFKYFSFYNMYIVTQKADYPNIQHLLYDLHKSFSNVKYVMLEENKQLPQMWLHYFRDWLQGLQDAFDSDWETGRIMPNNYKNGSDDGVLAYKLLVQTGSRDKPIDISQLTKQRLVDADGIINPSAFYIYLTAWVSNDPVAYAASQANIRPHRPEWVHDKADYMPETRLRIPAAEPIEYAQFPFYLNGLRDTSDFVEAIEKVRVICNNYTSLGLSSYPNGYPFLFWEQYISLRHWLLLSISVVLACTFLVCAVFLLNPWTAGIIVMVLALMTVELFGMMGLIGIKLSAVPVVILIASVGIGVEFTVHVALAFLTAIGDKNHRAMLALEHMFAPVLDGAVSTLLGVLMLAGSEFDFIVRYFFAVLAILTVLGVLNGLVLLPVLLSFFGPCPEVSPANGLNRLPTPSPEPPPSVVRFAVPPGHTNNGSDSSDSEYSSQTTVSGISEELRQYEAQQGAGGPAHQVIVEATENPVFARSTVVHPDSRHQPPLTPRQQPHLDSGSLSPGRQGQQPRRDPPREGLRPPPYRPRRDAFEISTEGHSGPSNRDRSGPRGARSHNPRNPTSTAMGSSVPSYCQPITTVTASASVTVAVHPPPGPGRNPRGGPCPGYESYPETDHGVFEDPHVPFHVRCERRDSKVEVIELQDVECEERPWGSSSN


Legend:
PTCH1 (Patched 1) = biological target: T1, PTCH1 (Patched 1); assay: UV photocrosslinking in intact cells, immunoprecipitation and click-biotin detection; assay type: cell-based
Text: UV photocrosslinking in intact cells, immunoprecipitation and click-biotin detection on PTCH1 (Patched 1) | PTCH1 itself could be photolabeled by 6-azi-20(S)-yne. Labeling of PTCH1 by 6-azi-20(S)-yne was diminished by SHH

hSMOΔC = biological target: T2, hSMOΔC (Homo sapiens, UniProt Q99835); assay: SEC; fluorescence-detection size exclusion chromatography (FSEC); purified hSMOΔC variants and Nb8-mVenus incubated 1 hour in 200 μl, no added ligands; Superose 6 Increase 3.2/300 in 10 mM Hepes pH 7.5, 150 mM NaCl, 0.02% GDN, 0.002% CHS; mVenus fluorescence followed; conditions: both partners purified
T2 construct: Smoothened (SMO), human, UniProt Q99835, amino acid residues 32 to 555, lacks the disordered C-terminal cytoplasmic tail; Purified in detergent (GDN/CHS); Cloned into pHR-CMV-TetO2 (Addgene plasmid no. 113883) with a 3C-protease cleavable mVenus-1D4 tag; called nonfluorescent in the FSEC assay; also called human Smoothened lacking its C-terminal cytoplasmic tail; hSMO∆C; not shown: HA, …

hSMOΔC-ΔCRD = biological target: T3, hSMOΔC-ΔCRD (Homo sapiens, UniProt Q99835); assay: as above; conditions: both partners purified
T3 construct: Smoothened (SMO), human, UniProt Q99835, amino acid residues 190 to 555, lacks the cysteine-rich domain and the C-terminal cytoplasmic tail; Purified in detergent (GDN/CHS); also called hSMOΔC lacking the CRD; not shown: mVenus, C-terminal, cleaved; 1D4, C-terminal, cleaved
T3 sequence (Q99835 190-555, stated change not applied): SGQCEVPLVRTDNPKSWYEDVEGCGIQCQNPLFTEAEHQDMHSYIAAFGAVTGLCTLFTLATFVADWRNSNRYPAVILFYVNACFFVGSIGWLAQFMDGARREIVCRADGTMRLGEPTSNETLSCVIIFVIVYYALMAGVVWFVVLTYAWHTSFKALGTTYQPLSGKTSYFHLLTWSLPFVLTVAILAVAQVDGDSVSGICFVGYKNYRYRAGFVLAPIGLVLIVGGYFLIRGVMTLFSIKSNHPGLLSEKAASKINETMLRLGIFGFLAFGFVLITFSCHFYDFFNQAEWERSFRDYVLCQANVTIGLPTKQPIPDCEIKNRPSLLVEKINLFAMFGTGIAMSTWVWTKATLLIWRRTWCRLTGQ

T2 sequence (Q99835 32-555, stated change not applied): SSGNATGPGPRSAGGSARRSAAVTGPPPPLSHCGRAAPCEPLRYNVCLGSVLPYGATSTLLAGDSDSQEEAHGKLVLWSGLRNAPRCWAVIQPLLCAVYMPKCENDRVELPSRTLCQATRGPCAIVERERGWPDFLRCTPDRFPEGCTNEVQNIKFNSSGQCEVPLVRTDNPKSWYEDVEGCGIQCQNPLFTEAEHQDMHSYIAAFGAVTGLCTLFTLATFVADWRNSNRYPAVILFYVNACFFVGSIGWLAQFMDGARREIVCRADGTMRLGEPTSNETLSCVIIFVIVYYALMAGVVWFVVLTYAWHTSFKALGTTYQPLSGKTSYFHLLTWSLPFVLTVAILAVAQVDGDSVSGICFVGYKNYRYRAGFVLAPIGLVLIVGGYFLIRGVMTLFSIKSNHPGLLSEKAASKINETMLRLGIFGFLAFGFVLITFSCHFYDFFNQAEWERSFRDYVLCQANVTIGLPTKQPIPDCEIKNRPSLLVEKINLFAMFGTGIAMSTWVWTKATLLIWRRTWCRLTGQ

binding result (hSMOΔC)	binding result (hSMOΔC-ΔCRD)	Molecule	UV photocrosslinking in intact cells, immunoprecipitation and click-biotin detec (PTCH1 (Patched 1))
–	–	C#CCC[C@](C)(O)[C@H]1CC[C@H]2[C@@H]3CC4(N=N4)[C@H]4C[C@@H](O)CC[C@]4(C)[C@H]3CC[C@@]21C [6-azi-20(S)-yne]	PTCH1 itself could be photolabeled by 6-azi-20(S)-yne. Labeling of PTCH1 by 6-azi-20(S)-yne was diminished by SHH
binds	binds	Nb8-mVenus (VHH, Fused at its C terminus to a HRV3C-mVenus-12His fragment (HRV3C protease site between Nb8 and mVenus); the only Nb8 construct described is this one; also called active-conformation specific nanobody Nb8; active-state selective Nb8; not shown: mVenus, C-terminal, kept; 12His, C-terminal, kept) VHH: QVQLQESGGGLVQAGGSLRLSCAASGYIFSSYAMGWYRQAPGKEREFVATIGWGTITYYADSVKGRFTISRDNAKNTVYLQMNSLKPEDTAVYYCAAQDLLYYSFPGDHAYWGQGTQVTVSS	–
